*1 amine or outer side, *2 acyl side, *3 side chain or, on linkers, in order; H or OH if unused. Where no end group is shown, it is not given here. Side-chain parts run from the residue outwards. [ ]: non-standard residue; d: D form. The star is where a group is joined. γGlu = O=C(O)[C@H](CCC(=O)[*:2])N[*:1]; Palmitoyl = CCCCCCCCCCCCCCCC(=O)*; Aib = CC(C)(N)C(=O)O
Legend:
human glucagon receptor = human glucagon receptor (human, UniProt P47871 26-477); assay: cell-based or functional assay
human GLP-1 receptor = human GLP-1 receptor (human, UniProt P43220 24-463); assay: cell-based or functional assay

Sequence of human glucagon receptor (P47871 26-477): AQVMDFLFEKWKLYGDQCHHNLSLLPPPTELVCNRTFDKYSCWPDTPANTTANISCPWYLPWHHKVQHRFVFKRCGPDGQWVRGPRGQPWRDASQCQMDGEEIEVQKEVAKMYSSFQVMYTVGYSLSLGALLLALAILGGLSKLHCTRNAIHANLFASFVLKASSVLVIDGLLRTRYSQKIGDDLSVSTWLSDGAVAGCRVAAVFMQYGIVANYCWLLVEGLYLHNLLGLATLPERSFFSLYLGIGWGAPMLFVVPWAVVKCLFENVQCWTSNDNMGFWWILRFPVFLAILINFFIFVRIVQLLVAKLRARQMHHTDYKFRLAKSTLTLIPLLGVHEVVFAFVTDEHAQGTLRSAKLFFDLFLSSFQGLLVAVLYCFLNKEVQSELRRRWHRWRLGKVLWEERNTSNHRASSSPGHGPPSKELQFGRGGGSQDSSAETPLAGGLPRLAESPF

Binder	EC50 hGlucagonR (cAMP formation) (human glucagon receptor) [nM]	EC50 hGLP-1R (cAMP formation) (human GLP-1 receptor) [nM]
H[dS]QGTFTSDLSKQMEEEAAKDFIEWLKAGGPSSGAPPPSK([γGlu-Palmitoyl])-NH2 (N-terminus assumed; SMILES CCCCCCCCCCCCCCCC(=O)N[C@@H](CCC(=O)NCCCC[C@H](NC(=O)[C@H](CO)NC(=O)[C@@H]1CCCN1C(=O)[C@@H]1CCCN1C(=O)[C@@H]1CCCN1C(=O)[C@H](C)NC(=O)CNC(=O)[C@H](CO)NC(=O)[C@H](CO)NC(=O)[C@@H]1CCCN1C(=O)CNC(=O)CNC(=O)[C@H](C)NC(=O)[C@H](CCCCN)NC(=O)[C@H](CC(C)C)NC(=O)[C@H](Cc1c[nH]c2ccccc12)NC(=O)[C@H](CCC(=O)O)NC(=O)[C@@H](NC(=O)[C@H](Cc1ccccc1)NC(=O)[C@H](CC(=O)O)NC(=O)[C@H](CCCCN)NC(=O)[C@H](C)NC(=O)[C@H](C)NC(=O)[C@H](CCC(=O)O)NC(=O)[C@H](CCC(=O)O)NC(=O)[C@H](CCC(=O)O)NC(=O)[C@H](CCSC)NC(=O)[C@H](CCC(N)=O)NC(=O)[C@H](CCCCN)NC(=O)[C@H](CO)NC(=O)[C@H](CC(C)C)NC(=O)[C@H](CC(=O)O)NC(=O)[C@H](CO)NC(=O)[C@@H](NC(=O)[C@H](Cc1ccccc1)NC(=O)[C@@H](NC(=O)CNC(=O)[C@H](CCC(N)=O)NC(=O)[C@@H](CO)NC(=O)[C@@H](N)Cc1c[nH]cn1)[C@@H](C)O)[C@@H](C)O)[C@@H](C)CC)C(N)=O)C(=O)O) [SEQ ID NO: (110)]	0.323	0.0029
H[dS]QGTFTSDLSKQMES[Aib]AAQDFIEWLKAGGPSSGAPPPSK([γGlu-Palmitoyl])-NH2 (N-terminus assumed; SMILES CCCCCCCCCCCCCCCC(=O)N[C@@H](CCC(=O)NCCCC[C@H](NC(=O)[C@H](CO)NC(=O)[C@@H]1CCCN1C(=O)[C@@H]1CCCN1C(=O)[C@@H]1CCCN1C(=O)[C@H](C)NC(=O)CNC(=O)[C@H](CO)NC(=O)[C@H](CO)NC(=O)[C@@H]1CCCN1C(=O)CNC(=O)CNC(=O)[C@H](C)NC(=O)[C@H](CCCCN)NC(=O)[C@H](CC(C)C)NC(=O)[C@H](Cc1c[nH]c2ccccc12)NC(=O)[C@H](CCC(=O)O)NC(=O)[C@@H](NC(=O)[C@H](Cc1ccccc1)NC(=O)[C@H](CC(=O)O)NC(=O)[C@H](CCC(N)=O)NC(=O)[C@H](C)NC(=O)[C@H](C)NC(=O)C(C)(C)NC(=O)[C@H](CO)NC(=O)[C@H](CCC(=O)O)NC(=O)[C@H](CCSC)NC(=O)[C@H](CCC(N)=O)NC(=O)[C@H](CCCCN)NC(=O)[C@H](CO)NC(=O)[C@H](CC(C)C)NC(=O)[C@H](CC(=O)O)NC(=O)[C@H](CO)NC(=O)[C@@H](NC(=O)[C@H](Cc1ccccc1)NC(=O)[C@@H](NC(=O)CNC(=O)[C@H](CCC(N)=O)NC(=O)[C@@H](CO)NC(=O)[C@@H](N)Cc1c[nH]cn1)[C@@H](C)O)[C@@H](C)O)[C@@H](C)CC)C(N)=O)C(=O)O) [SEQ ID NO: (111)]	0.206	0.0041
HSQGTFTSDLSKQMEEERAKDFIEWLKNGGPSSGAPPPS-NH2 [SEQ ID NO: (17)]	3.36	0.0241
H[dS]QGTFTSDLSKQMES[Aib]AAQLFIEWLKAGGPSSGAPPPSK([γGlu-Palmitoyl])-NH2 (N-terminus assumed; SMILES CCCCCCCCCCCCCCCC(=O)N[C@@H](CCC(=O)NCCCC[C@H](NC(=O)[C@H](CO)NC(=O)[C@@H]1CCCN1C(=O)[C@@H]1CCCN1C(=O)[C@@H]1CCCN1C(=O)[C@H](C)NC(=O)CNC(=O)[C@H](CO)NC(=O)[C@H](CO)NC(=O)[C@@H]1CCCN1C(=O)CNC(=O)CNC(=O)[C@H](C)NC(=O)[C@H](CCCCN)NC(=O)[C@H](CC(C)C)NC(=O)[C@H](Cc1c[nH]c2ccccc12)NC(=O)[C@H](CCC(=O)O)NC(=O)[C@@H](NC(=O)[C@H](Cc1ccccc1)NC(=O)[C@H](CC(C)C)NC(=O)[C@H](CCC(N)=O)NC(=O)[C@H](C)NC(=O)[C@H](C)NC(=O)C(C)(C)NC(=O)[C@H](CO)NC(=O)[C@H](CCC(=O)O)NC(=O)[C@H](CCSC)NC(=O)[C@H](CCC(N)=O)NC(=O)[C@H](CCCCN)NC(=O)[C@H](CO)NC(=O)[C@H](CC(C)C)NC(=O)[C@H](CC(=O)O)NC(=O)[C@H](CO)NC(=O)[C@@H](NC(=O)[C@H](Cc1ccccc1)NC(=O)[C@@H](NC(=O)CNC(=O)[C@H](CCC(N)=O)NC(=O)[C@@H](CO)NC(=O)[C@@H](N)Cc1c[nH]cn1)[C@@H](C)O)[C@@H](C)O)[C@@H](C)CC)C(N)=O)C(=O)O) [SEQ ID NO: (112)]	0.876	0.0097
H[dS]QGTFTSDLSKQMEEEAAKLFIEWLKAGGPSSGAPPPSK([γGlu-Palmitoyl])-NH2 (N-terminus assumed; SMILES CCCCCCCCCCCCCCCC(=O)N[C@@H](CCC(=O)NCCCC[C@H](NC(=O)[C@H](CO)NC(=O)[C@@H]1CCCN1C(=O)[C@@H]1CCCN1C(=O)[C@@H]1CCCN1C(=O)[C@H](C)NC(=O)CNC(=O)[C@H](CO)NC(=O)[C@H](CO)NC(=O)[C@@H]1CCCN1C(=O)CNC(=O)CNC(=O)[C@H](C)NC(=O)[C@H](CCCCN)NC(=O)[C@H](CC(C)C)NC(=O)[C@H](Cc1c[nH]c2ccccc12)NC(=O)[C@H](CCC(=O)O)NC(=O)[C@@H](NC(=O)[C@H](Cc1ccccc1)NC(=O)[C@H](CC(C)C)NC(=O)[C@H](CCCCN)NC(=O)[C@H](C)NC(=O)[C@H](C)NC(=O)[C@H](CCC(=O)O)NC(=O)[C@H](CCC(=O)O)NC(=O)[C@H](CCC(=O)O)NC(=O)[C@H](CCSC)NC(=O)[C@H](CCC(N)=O)NC(=O)[C@H](CCCCN)NC(=O)[C@H](CO)NC(=O)[C@H](CC(C)C)NC(=O)[C@H](CC(=O)O)NC(=O)[C@H](CO)NC(=O)[C@@H](NC(=O)[C@H](Cc1ccccc1)NC(=O)[C@@H](NC(=O)CNC(=O)[C@H](CCC(N)=O)NC(=O)[C@@H](CO)NC(=O)[C@@H](N)Cc1c[nH]cn1)[C@@H](C)O)[C@@H](C)O)[C@@H](C)CC)C(N)=O)C(=O)O) [SEQ ID NO: (113)]	0.311	0.002
H[dS]QGTFTSDLSKQMESEAAQLFIEWLKAGGPSSGAPPPSK([γGlu-Palmitoyl])-NH2 (N-terminus assumed; SMILES CCCCCCCCCCCCCCCC(=O)N[C@@H](CCC(=O)NCCCC[C@H](NC(=O)[C@H](CO)NC(=O)[C@@H]1CCCN1C(=O)[C@@H]1CCCN1C(=O)[C@@H]1CCCN1C(=O)[C@H](C)NC(=O)CNC(=O)[C@H](CO)NC(=O)[C@H](CO)NC(=O)[C@@H]1CCCN1C(=O)CNC(=O)CNC(=O)[C@H](C)NC(=O)[C@H](CCCCN)NC(=O)[C@H](CC(C)C)NC(=O)[C@H](Cc1c[nH]c2ccccc12)NC(=O)[C@H](CCC(=O)O)NC(=O)[C@@H](NC(=O)[C@H](Cc1ccccc1)NC(=O)[C@H](CC(C)C)NC(=O)[C@H](CCC(N)=O)NC(=O)[C@H](C)NC(=O)[C@H](C)NC(=O)[C@H](CCC(=O)O)NC(=O)[C@H](CO)NC(=O)[C@H](CCC(=O)O)NC(=O)[C@H](CCSC)NC(=O)[C@H](CCC(N)=O)NC(=O)[C@H](CCCCN)NC(=O)[C@H](CO)NC(=O)[C@H](CC(C)C)NC(=O)[C@H](CC(=O)O)NC(=O)[C@H](CO)NC(=O)[C@@H](NC(=O)[C@H](Cc1ccccc1)NC(=O)[C@@H](NC(=O)CNC(=O)[C@H](CCC(N)=O)NC(=O)[C@@H](CO)NC(=O)[C@@H](N)Cc1c[nH]cn1)[C@@H](C)O)[C@@H](C)O)[C@@H](C)CC)C(N)=O)C(=O)O) [SEQ ID NO: (114)]	0.295	0.0031

From patent US20130336893A1 (Sanofi, published 2013)
